The results in this text go back to patent publication US20080044360A1 (COLLAGEN MEDICAL, published 2008).

Bridge positions count the residues as written; N and C are the ends. Square brackets hold non-standard residues; d marks the D form. Primed or numbered codes have the meaning given here. Side chains are listed from the residue outwards. Ends that are not written are not given here. * marks the point of attachment. Phe(4-tBu) = CC(C)(C)c1ccc(C[C@H](N)C(=O)O)cc1; Tyr(3-Cl) = N[C@@H](Cc1ccc(O)c(Cl)c1)C(=O)O; Bip = N[C@@H](Cc1ccc(-c2ccccc2)cc1)C(=O)O; Tyr(3-I) = N[C@@H](Cc1ccc(O)c(I)c1)C(=O)O; Dip = N[C@H](C(=O)O)C(c1ccccc1)c1ccccc1; Phe(4-NH2) = Nc1ccc(C[C@H](N)C(=O)O)cc1; Gd^T(3) = GdDTPA attached via thiourea; d1Nal = N[C@H](Cc1cccc2ccccc12)C(=O)O; Lys(Gd^T)Gd^T = not defined here; Pen = CC(C)(S)[C@H](N)C(=O)O; Gd^G = not defined here; Gd^T = not defined here; Gd^T″ = GdDTPA-thiourea; Cbz = O=C(OCc1ccccc1)*; Dap = NC[C@H](N)C(=O)O

T2 sequence (P02454 152-1207, chain 1 of 2): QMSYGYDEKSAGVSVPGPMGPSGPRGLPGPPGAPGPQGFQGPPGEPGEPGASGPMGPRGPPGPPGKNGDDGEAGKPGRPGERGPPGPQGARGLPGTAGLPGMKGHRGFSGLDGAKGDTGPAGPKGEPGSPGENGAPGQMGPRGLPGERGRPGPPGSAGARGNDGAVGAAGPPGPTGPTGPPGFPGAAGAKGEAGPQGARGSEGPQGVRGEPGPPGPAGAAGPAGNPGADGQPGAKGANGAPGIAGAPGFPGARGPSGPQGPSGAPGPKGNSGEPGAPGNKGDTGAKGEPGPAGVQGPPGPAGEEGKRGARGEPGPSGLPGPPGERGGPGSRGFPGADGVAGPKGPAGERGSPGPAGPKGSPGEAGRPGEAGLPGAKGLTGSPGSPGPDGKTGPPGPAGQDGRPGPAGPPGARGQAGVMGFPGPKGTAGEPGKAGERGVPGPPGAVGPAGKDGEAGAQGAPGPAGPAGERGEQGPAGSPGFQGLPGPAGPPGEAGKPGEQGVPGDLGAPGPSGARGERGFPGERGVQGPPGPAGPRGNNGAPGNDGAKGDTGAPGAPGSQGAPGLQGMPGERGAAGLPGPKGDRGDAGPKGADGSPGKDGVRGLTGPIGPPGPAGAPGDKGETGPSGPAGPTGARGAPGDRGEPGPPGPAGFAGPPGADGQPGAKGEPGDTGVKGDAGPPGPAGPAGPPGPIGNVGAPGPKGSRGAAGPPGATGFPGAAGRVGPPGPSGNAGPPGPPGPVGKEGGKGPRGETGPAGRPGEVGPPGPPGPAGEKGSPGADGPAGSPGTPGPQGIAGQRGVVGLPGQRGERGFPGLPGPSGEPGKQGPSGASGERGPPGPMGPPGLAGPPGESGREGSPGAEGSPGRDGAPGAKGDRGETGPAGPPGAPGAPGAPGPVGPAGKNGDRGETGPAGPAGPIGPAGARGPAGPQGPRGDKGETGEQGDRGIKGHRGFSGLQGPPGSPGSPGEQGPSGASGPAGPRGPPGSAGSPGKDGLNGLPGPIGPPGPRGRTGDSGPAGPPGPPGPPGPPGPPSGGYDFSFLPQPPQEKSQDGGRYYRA
T2 sequence (P02466 86-1125, chain 2 of 2): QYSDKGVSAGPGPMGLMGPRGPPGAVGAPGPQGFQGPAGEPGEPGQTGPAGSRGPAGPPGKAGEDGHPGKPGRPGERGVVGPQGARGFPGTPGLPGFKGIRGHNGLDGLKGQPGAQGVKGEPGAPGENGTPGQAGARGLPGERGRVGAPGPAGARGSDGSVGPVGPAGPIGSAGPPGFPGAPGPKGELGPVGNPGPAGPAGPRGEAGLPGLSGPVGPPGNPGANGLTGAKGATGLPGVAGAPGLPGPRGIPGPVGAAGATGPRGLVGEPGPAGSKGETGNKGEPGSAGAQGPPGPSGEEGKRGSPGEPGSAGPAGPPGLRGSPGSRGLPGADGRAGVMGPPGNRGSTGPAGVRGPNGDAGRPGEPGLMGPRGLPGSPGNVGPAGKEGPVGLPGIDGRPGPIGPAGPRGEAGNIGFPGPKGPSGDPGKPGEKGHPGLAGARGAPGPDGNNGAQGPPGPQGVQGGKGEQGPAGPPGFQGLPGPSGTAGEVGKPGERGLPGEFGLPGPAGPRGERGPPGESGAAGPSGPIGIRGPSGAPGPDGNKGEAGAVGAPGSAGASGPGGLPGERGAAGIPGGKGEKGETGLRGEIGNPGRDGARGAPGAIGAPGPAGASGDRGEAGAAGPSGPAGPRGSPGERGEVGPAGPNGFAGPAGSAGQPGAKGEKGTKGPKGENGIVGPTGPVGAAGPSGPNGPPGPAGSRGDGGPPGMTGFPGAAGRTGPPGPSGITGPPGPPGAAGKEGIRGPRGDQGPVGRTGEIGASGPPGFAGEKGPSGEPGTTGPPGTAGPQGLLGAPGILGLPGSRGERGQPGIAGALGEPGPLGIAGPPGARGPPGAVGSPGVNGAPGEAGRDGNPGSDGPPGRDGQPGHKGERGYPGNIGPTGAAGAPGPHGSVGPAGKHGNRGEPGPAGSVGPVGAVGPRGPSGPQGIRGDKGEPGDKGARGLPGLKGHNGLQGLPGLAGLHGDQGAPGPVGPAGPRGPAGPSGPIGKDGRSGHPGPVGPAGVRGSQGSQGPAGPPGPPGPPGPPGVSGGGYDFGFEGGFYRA

The first experiment deals with T1, human collagen type I, acid soluble, extracted from placenta (Sigma C7774) (human, UniProt P02452 162-1218; P08123 80-1119).
T1 construct: tissue extract, gelled and dried in wells; also called dried human collagen; h-Collagen
T1 sequence (P02452 162-1218 limits assumed, chain 1 of 2): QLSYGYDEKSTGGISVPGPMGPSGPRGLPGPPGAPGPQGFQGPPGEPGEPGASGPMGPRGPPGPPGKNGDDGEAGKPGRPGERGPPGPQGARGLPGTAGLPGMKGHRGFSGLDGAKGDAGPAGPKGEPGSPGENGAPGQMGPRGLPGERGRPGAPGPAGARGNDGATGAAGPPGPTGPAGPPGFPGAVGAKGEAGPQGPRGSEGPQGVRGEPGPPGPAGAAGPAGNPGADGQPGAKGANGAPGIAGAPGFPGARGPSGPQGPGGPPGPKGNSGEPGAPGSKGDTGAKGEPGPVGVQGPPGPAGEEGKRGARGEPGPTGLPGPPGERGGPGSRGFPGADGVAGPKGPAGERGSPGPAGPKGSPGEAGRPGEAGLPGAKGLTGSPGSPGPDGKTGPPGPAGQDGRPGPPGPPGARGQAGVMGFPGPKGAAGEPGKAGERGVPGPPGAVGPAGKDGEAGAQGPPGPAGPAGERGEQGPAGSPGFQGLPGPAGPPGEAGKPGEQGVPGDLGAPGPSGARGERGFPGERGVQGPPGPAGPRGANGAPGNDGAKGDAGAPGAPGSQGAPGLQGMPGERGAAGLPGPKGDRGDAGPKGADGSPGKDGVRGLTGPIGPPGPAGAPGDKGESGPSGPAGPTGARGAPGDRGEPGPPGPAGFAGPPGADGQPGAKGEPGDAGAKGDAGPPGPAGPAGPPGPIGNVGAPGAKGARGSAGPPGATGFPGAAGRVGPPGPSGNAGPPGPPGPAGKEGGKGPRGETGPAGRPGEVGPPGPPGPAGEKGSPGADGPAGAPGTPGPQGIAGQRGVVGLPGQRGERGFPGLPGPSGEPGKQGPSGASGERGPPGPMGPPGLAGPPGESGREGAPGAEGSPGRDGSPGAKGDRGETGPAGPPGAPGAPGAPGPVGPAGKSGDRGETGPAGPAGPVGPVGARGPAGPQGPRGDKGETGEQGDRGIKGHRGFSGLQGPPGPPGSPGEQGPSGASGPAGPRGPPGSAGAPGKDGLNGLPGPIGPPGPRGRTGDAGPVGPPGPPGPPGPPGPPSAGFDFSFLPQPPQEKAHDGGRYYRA
T1 sequence (P08123 80-1119 limits assumed, chain 2 of 2): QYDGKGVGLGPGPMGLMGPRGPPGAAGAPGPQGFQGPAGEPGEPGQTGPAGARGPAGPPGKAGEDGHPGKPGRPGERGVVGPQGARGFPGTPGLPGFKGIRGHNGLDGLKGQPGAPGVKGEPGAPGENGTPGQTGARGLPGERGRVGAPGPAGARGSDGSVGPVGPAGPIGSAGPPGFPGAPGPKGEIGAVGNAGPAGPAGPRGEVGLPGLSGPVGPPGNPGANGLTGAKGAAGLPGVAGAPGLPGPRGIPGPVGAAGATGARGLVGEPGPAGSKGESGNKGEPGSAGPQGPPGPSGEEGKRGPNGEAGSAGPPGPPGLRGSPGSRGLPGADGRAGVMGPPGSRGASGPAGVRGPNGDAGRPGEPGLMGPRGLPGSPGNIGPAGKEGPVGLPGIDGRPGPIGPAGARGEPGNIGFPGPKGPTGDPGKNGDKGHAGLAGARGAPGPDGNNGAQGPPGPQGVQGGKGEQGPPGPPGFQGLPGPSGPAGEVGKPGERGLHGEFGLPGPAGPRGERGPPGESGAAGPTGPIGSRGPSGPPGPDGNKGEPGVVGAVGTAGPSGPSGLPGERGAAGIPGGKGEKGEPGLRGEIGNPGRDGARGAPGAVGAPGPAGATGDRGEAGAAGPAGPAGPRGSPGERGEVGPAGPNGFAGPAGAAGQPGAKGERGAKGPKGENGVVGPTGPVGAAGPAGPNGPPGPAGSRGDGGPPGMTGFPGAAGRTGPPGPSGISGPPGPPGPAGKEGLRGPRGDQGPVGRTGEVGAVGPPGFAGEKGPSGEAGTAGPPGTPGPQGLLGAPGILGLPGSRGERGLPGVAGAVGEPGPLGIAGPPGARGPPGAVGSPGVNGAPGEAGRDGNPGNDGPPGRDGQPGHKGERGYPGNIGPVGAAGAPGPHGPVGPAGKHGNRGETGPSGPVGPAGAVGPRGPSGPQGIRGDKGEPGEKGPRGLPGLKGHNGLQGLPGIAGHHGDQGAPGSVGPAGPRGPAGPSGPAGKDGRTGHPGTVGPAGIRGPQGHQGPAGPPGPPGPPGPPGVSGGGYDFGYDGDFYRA
Kind of experiment: dried collagen assay.
On to {Gd^G}-DWTCS[dR]DEYTWHCNYE (disulfide 4-13 (inferred); not fully specified (C-terminus); reading uncertain) [Compound ID 821], for which the “% bound” value is 56%.
Same read-out and setting: under {Gd^T}-DWTCSGDEYTWYCNYE (disulfide 4-13 (inferred); not fully specified (C-terminus); reading uncertain) [Compound ID 842] stands 23%; under {Gd^T″}-DWTC[Phe(4-tBu)]GDEYTWHCNYE (disulfide 4-13 (inferred); not fully specified (C-terminus)) [Compound ID 827], 41%.
In the case of {Gd^G}-DWTCRGDEYTWHCNYE (disulfide 4-13 (inferred); not fully specified (C-terminus); reading uncertain) [Compound ID 822], the “% bound” value amounted to 47%.
Same read-out and setting: in the case of {Gd^T″}-DWTC[Tyr(Bn,3-Cl)]GDEYTWHCNYE (disulfide 4-13 (inferred); not fully specified (C-terminus)) [Compound ID 825] it was 61%.
Still for that read-out and setting: in the case of {Gd^T″}-DWTCS[dY]DEYTWHCNYE (disulfide 4-13 (inferred); not fully specified (C-terminus)) [Compound ID 829] it was 20%; in that of {Gd^T}-DWTCS[dL]DEYTWHCNYE (disulfide 4-13 (inferred); not fully specified (C-terminus); reading uncertain) [Compound ID 847], 16%; in that of {Gd^T″}-DWTCS[dS]DEYTWHCNYE (disulfide 4-13 (inferred); not fully specified (C-terminus)) [Compound ID 836], 13%.
Same read-out and setting: under {Gd^T″}-GQWHCTTD[Phe(4-NH2)](Gd^T″)PHHYCLYG (disulfide 5-14 (inferred)) [Compound ID 885] stands 16%; under {Gd^T″}-GQWHCTDRFPHHYCLYG (disulfide 5-14 (inferred)) [Compound ID 936], 9%.
Consider {Gd^T″}-GK([Gly-Gd^T″])WHCTTLFPHHVCLYG (disulfide 5-14 (inferred)) [Compound ID 966], for which the “% bound” value worked out at 14%.
The same measure, in the same setting: under Cbz-GQWHCTK(Gd^T″)RFPHHYCLYG (disulfide 5-14 (inferred)) [Compound ID 940] stands 9%; under {Gd^T″}-GK([Gly-Gd^T″])WHCTTYFPHHYCL[Dip]G (disulfide 5-14 (inferred); not fully specified) [Compound ID 967], 11%.
Same read-out and setting: under {Gd^T″}-GK([Gly-Gd^T″])WHCTTYFPHH[Dip]CLYG (disulfide 5-14 (inferred); not fully specified) [Compound ID 968] stands 77%.
Same read-out and setting: in the case of {Gd^T(3)}-GQWHCTTRFPHH[d1Nal]CLYG (disulfide 5-14; not fully specified (C-terminus)) [Compound ID 904] it was 0%; in that of {Gd^G}-PWTCSGDEYAWHCNY[dE] (disulfide 4-13 (inferred); not fully specified (C-terminus); reading uncertain) [Compound ID 824], 12%.
In the case of {Gd^T″}-DWTCSGDEYTWHCN[Tyr(3-I)]E (disulfide 4-13 (inferred); not fully specified (C-terminus)) [Compound ID 831], the “% bound” value stood at 50%.
Same read-out and setting: under {Gd^T″}-DWTCSGDEYYWHCNYE (disulfide 4-13 (inferred); not fully specified (C-terminus)) [Compound ID 834] stands 22%.
On the same count and under the same terms, under {Gd^T}-DWTCSGDE[Tyr(3-I)]TWHCNYE (disulfide 4-13 (inferred); not fully specified (C-terminus); reading uncertain) [Compound ID 846] stands 31%; under {Gd^T″}-DWTC[Phe(4-CO2H)]GDEYTWHCNYE (disulfide 4-13 (inferred); not fully specified (C-terminus)) [Compound ID 828], 52%; under {Gd^T}-DWTCSGDEYTWHCNYE (disulfide 4-13 (inferred); not fully specified (C-terminus); reading uncertain) [Compound ID 848], 35%.
Take {Gd^T″}-DWTCS[dA]DEYTWHCNYE (disulfide 4-13 (inferred); not fully specified (C-terminus)) [Compound ID 835]: the “% bound” value stood at 17%.
For {Gd^T(3)}-GQWHCTTRFPHHY[Pen]LYG (disulfide 5-14; not fully specified (C-terminus)) [Compound ID 906], the “% bound” value worked out at 13%.
On the same count and under the same terms, in the case of {Gd^T″}-GQWTCSGDEYAWHCNY[dE] (disulfide 5-14 (inferred); not fully specified (C-terminus)) [Compound ID 832] it was 12%.
Turning to {Gd^T″}-GQWTCSGDEYTWACNYE (disulfide 5-14 (inferred); not fully specified (C-terminus)) [Compound ID 833], the “% bound” value was determined as 13%.
Regarding {Gd^T}-GQWACSGDEYTWHCNYE (disulfide 5-14 (inferred); not fully specified (C-terminus); reading uncertain) [Compound ID 840], the “% bound” value was found to be 15%.
On the same count and under the same terms, under {Gd^T″}-GK([Gly-Gd^T″])WH[dC]TTK(Gd^T″)FPHHYCLY[Bip] (disulfide 5-14) [Compound ID 1019] stands 14%.

A further experiment addresses T2, rat collagen, acid soluble, type I, rat tail (Upstate 08-115) (rat, UniProt P02454 152-1207; P02466 86-1125).
T2 construct: tissue extract, gelled and dried in wells; also called dried rat collagen
Kind of experiment: dried collagen assay.
For {Gd^T(3)}-GK([Gly-Gd^T(3)])WHCTTYFPHH[Bip]CLYG (disulfide 5-14) [Compound ID 951], the “% bound” value was 32%.
The same measure, in the same setting: under {Gd^G}-DWTCS[dR]DEYTWHCNYE (disulfide 4-13 (inferred); not fully specified (C-terminus); reading uncertain) [Compound ID 821] stands 29%.
Regarding {Gd^T}-DWTCSGDEYTWYCNYE (disulfide 4-13 (inferred); not fully specified (C-terminus); reading uncertain) [Compound ID 842], the “% bound” value turned out to be 9%.
Same read-out and setting: in the case of {Gd^T″}-DWTC[Phe(4-tBu)]GDEYTWHCNYE (disulfide 4-13 (inferred); not fully specified (C-terminus)) [Compound ID 827] it was 20%; in that of {Gd^G}-DWTCRGDEYTWHCNYE (disulfide 4-13 (inferred); not fully specified (C-terminus); reading uncertain) [Compound ID 822], 20%; in that of {Gd^T″}-DWTC[Tyr(Bn,3-Cl)]GDEYTWHCNYE (disulfide 4-13 (inferred); not fully specified (C-terminus)) [Compound ID 825], 63%.
Same read-out and setting: in the case of {Gd^T″}-DWTCS[dY]DEYTWHCNYE (disulfide 4-13 (inferred); not fully specified (C-terminus)) [Compound ID 829] it was 21%; in that of {Gd^T″}-GQWHCTTRFPHH[dT]CLYG (disulfide 5-14 (inferred); not fully specified (C-terminus)) [Compound ID 905], 2%; in that of {Gd^T″}-K(Gd^T″)K(Lys(Gd^T)Gd^T)WHCYTYFPHHYCVYG (disulfide 5-14 (inferred); reading uncertain) [Compound ID 1003], 47%.
On the same count and under the same terms, in the case of {Gd^T″}-GQWHCT[dS]RFPHHYCLYG (disulfide 5-14 (inferred); not fully specified (C-terminus)) [Compound ID 898] it was 3%; in that of {Gd^T″}-GQWHCTTD[Tyr(3-Cl)]PHHYCLYG (disulfide 5-14 (inferred); not fully specified (C-terminus)) [Compound ID 895], 0%; in that of {Gd^T″}-GQWHCT[dR]RFPHHYCLYG (disulfide 5-14 (inferred); not fully specified (C-terminus)) [Compound ID 900], 1%.
On to {Gd^T″}-GQWHCT[dN]RFPHHYCLYG (disulfide 5-14 (inferred); not fully specified (C-terminus)) [Compound ID 897], for which the “% bound” value stood at 1%.
The same measure, in the same setting: under {Gd^T″}-GQWHCTTRFPHH[dR]CLYG (disulfide 5-14 (inferred); not fully specified (C-terminus)) [Compound ID 902] stands 2%.
For {Gd^T″}-GQWHCTTDFPH[Dap]YCLYG (disulfide 5-14) [Compound ID 886], the “% bound” value stood at 13%.
The same measure, in the same setting: in the case of {Gd^G}-PWTCSGDEYAWHCNY[dE] (disulfide 4-13 (inferred); not fully specified (C-terminus); reading uncertain) [Compound ID 824] it was 0%.
On the same count and under the same terms, in the case of {Gd^T″}-DWTCSGDEYTWHCN[Tyr(3-I)]E (disulfide 4-13 (inferred); not fully specified (C-terminus)) [Compound ID 831] it was 21%.
Same read-out and setting: in the case of {Gd^T″}-DWTCSGDEYYWHCNYE (disulfide 4-13 (inferred); not fully specified (C-terminus)) [Compound ID 834] it was 9%.
Turning to {Gd^T}-DWTCSGDE[Tyr(3-I)]TWHCNYE (disulfide 4-13 (inferred); not fully specified (C-terminus); reading uncertain) [Compound ID 846], the “% bound” value was 9%.
The same measure, in the same setting: under {Gd^T″}-DWTC[Phe(4-CO2H)]GDEYTWHCNYE (disulfide 4-13 (inferred); not fully specified (C-terminus)) [Compound ID 828] stands 20%; under {Gd^T}-DWTCSGDEYTWHCNYE (disulfide 4-13 (inferred); not fully specified (C-terminus); reading uncertain) [Compound ID 848], 9%.
Consider {Gd^T″}-DWTCS[dA]DEYTWHCNYE (disulfide 4-13 (inferred); not fully specified (C-terminus)) [Compound ID 835], for which the “% bound” value was determined as 9%.
